Reference: paper PMC10716038, “Talin and kindlin use integrin tail allostery and direct binding to activate integrins” (Nature Structural & Molecular Biology, 2023)

B1: talin-1 head domain (THD1) [not stated] / ATTO 488-labelled β3-CT (488–β3-CT) [modified: ATTO 488 at the N terminus; ATTO 488 at the N terminus] [not stated] (parent)
chain 1: MVALSLKISIGNVVKTMQFEPSTMVYDACRMIRERIPEALAGPPNDFGLFLSDDDPKKGIWLEAGKALDYYMLRNGDTMEYRKKQRPLKIRMLDGTVKTIMVDDSKTVTDMLMTICARIGITNHDEYSLVRELMEEKKDEGTGTLRKDKTLLRDEKKMEKLKQKLHTDDELNWLDHGRTLREQGVEEHETLLLRRKFFYSDQNVDSRDPVQLNLLYVQARDDILNGSHPVSFDKACEFAGFQCQIQFGPHNEQKHKAGFLDLKDFLPKEYVKQKGERKIFQAHKNCGQMSEIEAKVRYVKLARSLKTYGVSFFLVKEKMKGKNKLVPRLLGITKECVMRVDEKTKEVIQEWSLTNIKRWAASPKSFTLDFGDYQDGYYSVQTTEGEQIAQLIAGYIDIILKKKKS
chain 2: KLLITIHDRKEFAKFEEERARAKWDTANNPLYKEATSTFTNITYRGT

Variants of: B1
Assay: MST
Details: with ATTO 488-labelled β3-CT (488–β3-CT) [modified: ATTO 488 at the N terminus, 30-40 µM KIND2, n = 2, read off a plot

Row | Variant | screen value
1 | chain 1 K401A | 0.55
2 | chain 1 Y395A | 0.68
3 | chain 1 K403E | 0.57
4 | chain 1 K402A | 0.45
5 | chain 1 L400A | 1.1

The next lines start with the values.

Row | screen value | Variant
6 | 0.75 | chain 1 K404A
7 | 1 | chain 1 I396A
8 | 0.5 | chain 1 K403A
9 | 0.65 | chain 1 I398A
10 | 0.7 | chain 1 K402A K403A
11 | 0.93 | chain 1 I399A
